In data set [1] the test system is CO[C@H]1/C=C/O[C@@]2(C)Oc3c(C)c(O)c4c(O)c(c(/C=N/N5CCN(C)CC5)c(O)c4c3C2=O)NC(=O)/C(C)=C\C=C\[C@H](C)[C@H](O)[C@@H](C)[C@@H](O)[C@@H](C)[C@H](OC(C)=O)[C@@H]1C. Kind of data set: steady-state oxygen consumption (oxygraph). The format is biochemical, Nocardia farcinica. The note with it: 1 mM NADPH, 100 mM sodium phosphate pH 7.5, 25°C. The source says:
(§1) steady-state oxygen consumption (oxygraph) on RifMO (rifampicin monooxygenase)

In data set [2] the test system is NC(=O)C1=CN([C@@H]2O[C@H](COP(=O)(O)OP(=O)(O)OC[C@H]3O[C@@H](n4cnc5c(N)ncnc54)[C@H](O)[C@@H]3O)[C@@H](O)[C@H]2O)C=CC1. Kind of data set: steady-state oxygen consumption (oxygraph). It counts as biochemical, Nocardia farcinica. The following applies: 30 μM Rif, 100 mM sodium phosphate pH 7.5, 25°C, varied: cofactor.
From the text: as §1

Data set [3] has as its system NC(=O)C1=CN([C@@H]2O[C@H](COP(=O)(O)OP(=O)(O)OC[C@H]3O[C@@H](n4cnc5c(N)ncnc54)[C@H](OP(=O)(O)O)[C@@H]3O)[C@@H](O)[C@H]2O)C=CC1. Put plainly: steady-state oxygen consumption (oxygraph). It counts as biochemical, Nocardia farcinica. The note with it: 30 μM Rif, 100 mM sodium phosphate pH 7.5, 25°C, varied: cofactor.
From the text: as §1

In data set [4] the target is T1, RifMO (rifampicin monooxygenase) (Nocardia farcinica, UniProt Q5YTV5).
T1 construct: gene rox; full-length, codon optimized, pET15b N-terminal 6xHis tag cleaved with thrombin, expressed in E. coli
Kind of data set: steady-state oxygen consumption (oxygraph). The format is biochemical. The note with it: substrate inhibition by NADPH; 30 μM Rif, 100 mM sodium phosphate pH 7.5, 25°C.
From the text: as §1

The target in data set [5] is T1, RifMO (rifampicin monooxygenase). Kind of data set: flavin absorbance change at […] nm (spectral titration). The format is binding.

Results on three compounds are retold here after paper PMC5051949, “Mechanism of Rifampicin Inactivation in Nocardia farcinica” (PLoS ONE, 2016).

T1 sequence (Q5YTV5 whole entry): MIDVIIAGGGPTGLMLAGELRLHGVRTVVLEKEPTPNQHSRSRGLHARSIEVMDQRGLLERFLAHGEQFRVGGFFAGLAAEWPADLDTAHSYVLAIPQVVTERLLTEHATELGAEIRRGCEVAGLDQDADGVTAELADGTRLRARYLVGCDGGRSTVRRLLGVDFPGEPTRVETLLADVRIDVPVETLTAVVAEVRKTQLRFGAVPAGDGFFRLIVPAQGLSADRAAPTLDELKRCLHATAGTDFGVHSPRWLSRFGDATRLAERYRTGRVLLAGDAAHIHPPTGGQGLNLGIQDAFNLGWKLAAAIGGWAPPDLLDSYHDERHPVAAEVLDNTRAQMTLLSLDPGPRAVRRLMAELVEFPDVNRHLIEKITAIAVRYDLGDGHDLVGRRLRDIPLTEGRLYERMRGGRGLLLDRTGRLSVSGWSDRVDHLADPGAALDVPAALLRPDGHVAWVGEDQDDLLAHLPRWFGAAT

For “RifMO (rifampicin monooxygenase) (Nocardia farcinica IFM 10152)”, in data set [1], the Km is 5.8 ± 0.88 µM, the kcat was determined as 4 ± 0.16 s⁻¹ and the kcat/Km was found to be 700000 ± 81300 M⁻¹ s⁻¹. Also, in data set [2], the Km amounted to 266 ± 25 µM, the kcat was found to be 3.3 ± 0.06 s⁻¹ and the kcat/Km amounted to 12600 ± 1000 M⁻¹ s⁻¹. In data set [3], the Km was found to be 90 ± 10 µM, the kcat amounted to 4 ± 0.1 s⁻¹ and the kcat/Km is 43100 ± 3700 M⁻¹ s⁻¹.

As for `NC(=O)C1=CN([C@@H]2O[C@H](COP(=O)(O)OP(=O)(O)OC[C@H]3O[C@@H](n4cnc5c(N)ncnc54)[C@H](OP(=O)(O)O)[C@@H]3O)[C@@H](O)[C@H]2O)C=CC1` [NADPH], the “KI” value in data set [4] is 33000 ± 4000 µM.

Regarding `CO[C@H]1/C=C/O[C@@]2(C)Oc3c(C)c(O)c4c(O)c(c(/C=N/N5CCN(C)CC5)c(O)c4c3C2=O)NC(=O)/C(C)=C\C=C\[C@H](C)[C@H](O)[C@@H](C)[C@@H](O)[C@@H](C)[C@H](OC(C)=O)[C@@H]1C` [Rif, rifampicin], in data set [5], binding was characterised by a dissociation constant (Kd) of 9.5 ± 2.5 µM.

A word on the Km: it is the concentration of substrate that gives half-maximal velocity. Broadly, the kcat is the maximal rate divided by the concentration of active sites. As usually defined, the kcat/Km is the second-order rate constant that governs catalysis at low substrate concentration. Broadly, the Kd is the equilibrium constant for the complex coming apart. A lower Kd goes with higher affinity.
